Reference: US20210340276A1

Target: Human cancer-specific MUC1 peptide (PTL 1) (human)
Test: ELISA, MUC1 peptide immobilized on 384-well plate, HRP anti-human Igκ detection, luminescence

EC50	Binder
0.35 nM	Sample No. 4: [DOTA]p-Fab (Fab, V domains shown, may carry the labeling moiety; sites not stated; DOTA bound directly (via N-hydroxysulfosuccinimidyl DOTA) to amino group(s) of the Fab, one or two per Fab by MS, sites and chain not stated; N-terminal Gln into pyroglutamic acid in a great majority (Example 2)) VH: QVQLVQSGAEVKKPGASVKVSCKASGYTFTNYGLSWVRQAPGQGLEWMGENHPGSGIIYHNEKFRGRVTLTADRSTSTAYMELSSLRSEDTAVYYCARSSGTRGFDYWGQGTLVTVSS VL: DVVMTQTPLSLSVTPGQPASISCRSSQSIVHSNGNTYLEWYLQKPGQSPQLLIYRVSNRFSGVPDRFSGSGSGTDFTLKISRVEAEDVGVYYCFQGSHGPWTFGQGTKLEIKR
0.3 nM	Sample No. 6: [DOTA-NH-CH2-(1,3-phenylene)-C(═O)-Gly-Lys-Z2]p-Fab (Fab, V domains shown, may carry the labeling moiety; sites not stated; [DOTA-NH-CH2-(1,3-phenylene)-C(═O)-Gly-Lys-Z2] labeling moiety bound via 2-iminothiolane to amino group(s) of the Fab, one to three per Fab by MS, sites and chain not stated; N-terminal Gln into pyroglutamic acid in a great majority (Example 2)) VH: QVQLVQSGAEVKKPGASVKVSCKASGYTFTNYGLSWVRQAPGQGLEWMGENHPGSGIIYHNEKFRGRVTLTADRSTSTAYMELSSLRSEDTAVYYCARSSGTRGFDYWGQGTLVTVSS VL: DVVMTQTPLSLSVTPGQPASISCRSSQSIVHSNGNTYLEWYLQKPGQSPQLLIYRVSNRFSGVPDRFSGSGSGTDFTLKISRVEAEDVGVYYCFQGSHGPWTFGQGTKLEIKR
0.31 nM	Sample No. 7: [DOTA-Met-Ile-NH-(CH2)2-Z1]p-Fab (Fab, V domains shown, may carry the labeling moiety; sites not stated; [DOTA-Met-Ile-NH-(CH2)2-Z1] labeling moiety bound via 2-iminothiolane to amino group(s) of the Fab, one to three per Fab by MS, sites and chain not stated; N-terminal Gln into pyroglutamic acid in a great majority (Example 2)) VH: QVQLVQSGAEVKKPGASVKVSCKASGYTFTNYGLSWVRQAPGQGLEWMGENHPGSGIIYHNEKFRGRVTLTADRSTSTAYMELSSLRSEDTAVYYCARSSGTRGFDYWGQGTLVTVSS VL: DVVMTQTPLSLSVTPGQPASISCRSSQSIVHSNGNTYLEWYLQKPGQSPQLLIYRVSNRFSGVPDRFSGSGSGTDFTLKISRVEAEDVGVYYCFQGSHGPWTFGQGTKLEIKR

The remaining lines, values behind:

Binder	EC50
Sample No. 1: [DFO-C(═O)-(1,3-phenylene)-C(═O)-Gly-Lys-Z2]p-Fab (Fab, V domains shown, may carry the labeling moiety; sites not stated; [DFO-C(═O)-(1,3-phenylene)-C(═O)-Gly-Lys-Z2] labeling moiety bound via 2-iminothiolane to amino group(s) of the Fab, one or two per Fab by MS, sites and chain not stated; N-terminal Gln into pyroglutamic acid in a great majority (Example 2)) VH: QVQLVQSGAEVKKPGASVKVSCKASGYTFTNYGLSWVRQAPGQGLEWMGENHPGSGIIYHNEKFRGRVTLTADRSTSTAYMELSSLRSEDTAVYYCARSSGTRGFDYWGQGTLVTVSS VL: DVVMTQTPLSLSVTPGQPASISCRSSQSIVHSNGNTYLEWYLQKPGQSPQLLIYRVSNRFSGVPDRFSGSGSGTDFTLKISRVEAEDVGVYYCFQGSHGPWTFGQGTKLEIKR	0.29 nM
Sample No. 2: [DFO-C(═O)-CH2O-(1,3-phenylene)-C(═O)-Gly-Lys-Z2]p-Fab (Fab, V domains shown, may carry the labeling moiety; sites not stated; [DFO-C(═O)-CH2O-(1,3-phenylene)-C(═O)-Gly-Lys-Z2] labeling moiety bound via 2-iminothiolane to amino group(s) of the Fab, one or two per Fab by MS, sites and chain not stated; N-terminal Gln into pyroglutamic acid in a great majority (Example 2)) VH: QVQLVQSGAEVKKPGASVKVSCKASGYTFTNYGLSWVRQAPGQGLEWMGENHPGSGIIYHNEKFRGRVTLTADRSTSTAYMELSSLRSEDTAVYYCARSSGTRGFDYWGQGTLVTVSS VL: DVVMTQTPLSLSVTPGQPASISCRSSQSIVHSNGNTYLEWYLQKPGQSPQLLIYRVSNRFSGVPDRFSGSGSGTDFTLKISRVEAEDVGVYYCFQGSHGPWTFGQGTKLEIKR	0.3 nM
Sample No. 3: [DOTA-CH2-(1,4-phenylene)-NH-C(═S)]p-Fab (Fab, V domains shown, may carry the labeling moiety; sites not stated; [DOTA-CH2-(1,4-phenylene)-NH-C(═S)] (from p-SCN-Bn-DOTA) bound to amino group(s) of the Fab, one to four per Fab by MS, sites and chain not stated; N-terminal Gln into pyroglutamic acid in a great majority (Example 2)) VH: QVQLVQSGAEVKKPGASVKVSCKASGYTFTNYGLSWVRQAPGQGLEWMGENHPGSGIIYHNEKFRGRVTLTADRSTSTAYMELSSLRSEDTAVYYCARSSGTRGFDYWGQGTLVTVSS VL: DVVMTQTPLSLSVTPGQPASISCRSSQSIVHSNGNTYLEWYLQKPGQSPQLLIYRVSNRFSGVPDRFSGSGSGTDFTLKISRVEAEDVGVYYCFQGSHGPWTFGQGTKLEIKR	0.49 nM
Sample No. 5: [DOTA-Gly-Lys-Z2]p-Fab (Fab, V domains shown, may carry the labeling moiety; sites not stated; [DOTA-Gly-Lys-Z2] labeling moiety bound via 2-iminothiolane to amino group(s) of the Fab, one or two per Fab by MS, sites and chain not stated; N-terminal Gln into pyroglutamic acid in a great majority (Example 2)) VH: QVQLVQSGAEVKKPGASVKVSCKASGYTFTNYGLSWVRQAPGQGLEWMGENHPGSGIIYHNEKFRGRVTLTADRSTSTAYMELSSLRSEDTAVYYCARSSGTRGFDYWGQGTLVTVSS VL: DVVMTQTPLSLSVTPGQPASISCRSSQSIVHSNGNTYLEWYLQKPGQSPQLLIYRVSNRFSGVPDRFSGSGSGTDFTLKISRVEAEDVGVYYCFQGSHGPWTFGQGTKLEIKR	0.31 nM
